Columns and labels:
[1] = biological target: T1, recombinant furin, biotinylated (UniProt P09958 27-794, biotin); assay: BLI
[2] = biological target: T1, recombinant furin, biotinylated; assay: BLI; remark: listed apart in the source

T1 sequence (P09958 108-715): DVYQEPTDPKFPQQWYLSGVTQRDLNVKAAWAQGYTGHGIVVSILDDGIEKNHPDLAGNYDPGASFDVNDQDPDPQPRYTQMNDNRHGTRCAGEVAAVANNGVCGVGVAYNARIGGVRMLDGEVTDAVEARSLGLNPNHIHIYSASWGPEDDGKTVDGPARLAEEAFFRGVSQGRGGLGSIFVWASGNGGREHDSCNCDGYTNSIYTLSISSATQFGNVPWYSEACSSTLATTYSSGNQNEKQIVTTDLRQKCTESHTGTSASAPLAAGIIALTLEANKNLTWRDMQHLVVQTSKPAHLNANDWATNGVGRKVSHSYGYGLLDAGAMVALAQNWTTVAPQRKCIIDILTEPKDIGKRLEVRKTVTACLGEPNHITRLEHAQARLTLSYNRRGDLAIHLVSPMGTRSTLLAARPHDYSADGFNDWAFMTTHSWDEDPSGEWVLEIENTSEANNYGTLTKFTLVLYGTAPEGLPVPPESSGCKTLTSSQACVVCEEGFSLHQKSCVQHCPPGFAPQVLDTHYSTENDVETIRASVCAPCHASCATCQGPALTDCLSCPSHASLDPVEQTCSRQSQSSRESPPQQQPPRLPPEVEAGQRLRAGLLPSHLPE

| Binder | koff [1] [s⁻¹] | Kd [2] [nM] |
| --- | --- | --- |
| farletuzumab-FuG1 (antibody, V domains shown) VH: EVQLVESGGGVVQPGRSLRLSCSASGFTFSGYGLSWVRQAPGKGLEWVAMISSGGSYTYYADSVKGRFAISRDNAKNTLFLQMDSLRPEDTGVYFCARHGDDPAWFAYWGQGTPVTVSS VL: DIQLTQSPSSLSASVGDRVTITCSVSSSISSNNLHWYQQKPGKAPKPWIYGTSNLASGVPSRFSGSGSGTDYTFTISSLQPEDIATYYCQQWSSYPYMYTFGQGTKVEIK | 8.65e-05 | 33 |
| farletuzumab-cFuG1 (antibody, V domains shown) VH: EVQLVESGGGVVQPGRSLRLSCSASGFTFSGYGLSWVRQAPGKGLEWVAMISSGGSYTYYADSVKGRFAISRDNAKNTLFLQMDSLRPEDTGVYFCARHGDDPAWFAYWGQGTPVTVSS VL: DIQLTQSPSSLSASVGDRVTITCSVSSSISSNNLHWYQQKPGKAPKPWIYGTSNLASGVPSRFSGSGSGTDYTFTISSLQPEDIATYYCQQWSSYPYMYTFGQGTKVEIK | 0.000312 | 7.5 |

Source: article PMC8826744 (2022)
